Experiments:
[1] = target: MabSelect Sure Protein A ligand (protein A resin, GE Healthcare); test: batch resin-slurry partitioning on MabSelect Sure protein A resin; Elute: 20 mM NaAcetate, pH 3.5; reference mAb1
[2] = target: MabSelect Sure Protein A ligand (protein A resin, GE Healthcare); test: batch resin-slurry partitioning on MabSelect Sure protein A resin; Strip: 100 mM acetic acid; reference mAb2
[3] = target: MabSelect Sure Protein A ligand (protein A resin, GE Healthcare); test: batch resin-slurry partitioning on MabSelect Sure protein A resin; Strip: 100 mM acetic acid
[4] = target: MabSelect Sure Protein A ligand (protein A resin, GE Healthcare); test: batch resin-slurry partitioning on MabSelect Sure protein A resin; Elute: 20 mM NaAcetate, pH 3.5
[5] = target: MabSelect Sure Protein A ligand (protein A resin, GE Healthcare); test: batch resin-slurry partitioning on MabSelect Sure protein A resin; High salt wash: 10 mM NaPhosphate, pH 6.5, 0.5M NaCl; reference mAb2
[6] = target: MabSelect Sure Protein A ligand (protein A resin, GE Healthcare); test: batch resin-slurry partitioning on MabSelect Sure protein A resin; Equil/wash: 10 mM NaPhosphate, pH 6.5; reference mAb1
[7] = target: MabSelect Sure Protein A ligand (protein A resin, GE Healthcare); test: partitioning on protein A resin under loading conditions; reference mAb3
[8] = target: MabSelect Sure Protein A ligand (protein A resin, GE Healthcare); test: batch resin-slurry partitioning on MabSelect Sure protein A resin; Equil/wash: 10 mM NaPhosphate, pH 6.5; reference mAb2
[9] = target: MabSelect Sure Protein A ligand (protein A resin, GE Healthcare); test: batch resin-slurry partitioning on MabSelect Sure protein A resin; Equil/wash: 10 mM NaPhosphate, pH 6.5
[10] = target: MabSelect Sure Protein A ligand (protein A resin, GE Healthcare); test: batch resin-slurry partitioning on MabSelect Sure protein A resin; Elute: 20 mM NaAcetate, pH 3.5; reference mAb2
[11] = target: MabSelect Sure Protein A ligand (protein A resin, GE Healthcare); test: batch resin-slurry partitioning on MabSelect Sure protein A resin; Strip: 100 mM acetic acid; reference mAb1
[12] = target: MabSelect Sure Protein A ligand (protein A resin, GE Healthcare); test: batch resin-slurry partitioning on MabSelect Sure protein A resin; High salt wash: 10 mM NaPhosphate, pH 6.5, 0.5M NaCl; reference mAb1
[13] = target: MabSelect Sure Protein A ligand (protein A resin, GE Healthcare); test: batch resin-slurry partitioning on MabSelect Sure protein A resin; High salt wash: 10 mM NaPhosphate, pH 6.5, 0.5M NaCl

Row | Substance | log α (log KP PLBL2 - log KP mAb1) [1] | log α (log KP PLBL2 - log KP mAb2) [2] | log KP (partition coefficient, bound/free) [3] | log KP (partition coefficient, bound/free) [4] | log α (log KP PLBL2 - log KP mAb2) [5] | log α (log KP PLBL2 - log KP mAb1) [6] | log α (log KP PLBL2 - log KP mAb3) [7] | log α (log KP PLBL2 - log KP mAb2) [8] | log KP (partition coefficient, bound/free) [9] | log α (log KP PLBL2 - log KP mAb2) [10] | log α (log KP PLBL2 - log KP mAb1) [11] | log α (log KP PLBL2 - log KP mAb1) [12] | log KP (partition coefficient, bound/free) [13]
1 | phospholipase B-like 2 (PLBL2) | 0 |  |  |  |  |  |  |  |  |  |  |  | 
2 | phospholipase B-like 2 (PLBL2) (enzyme) |  | 0 | 0 | 0 | -2 | -2 | -2 | -2 | 0 | -0.3 | 0 | -2 | 0
